According to US20070059799A1:
Like-named read-outs stand apart in the source and are kept apart here.

Experiments:
HLA-B*0702 (human) = experiment: competition with 125I-labelled standard peptide for purified HLA, gel filtration
HLA-B*3501 (human) = experiment: as above
HLA-B*5101 (human) = experiment: as above
HLA-B*5401 (human) = experiment: as above
HLA-A*0301 (human) [1] = experiment: competition with 125I-labelled probe peptide for purified HLA, gel filtration
HLA-A*3101 (human) [2] = experiment: as above
HLA-A*3301 (human) [3] = experiment: as above
HLA-A*0301 (human) [4] = biological target: HLA-A*0301 (human)
HLA-A*0301 (human) [5] = biological target: HLA-A*0301 (human); remark: listed apart in the source
HLA-A*0301 (human) [6] = biological target: HLA-A*0301 (human); remark: listed apart in the source
[7] = biological target: T1, HLA-DR4w15 (DRB1*0405) (human)
T1 chain 1: not shown
T1 chain 2: not shown

[8] = biological target: T2, HLA-DR1 (DRB1*0101) (human)
T2 chain 1: not shown
T2 chain 2: not shown

[9] = biological target: T3, HLA-DR5w11 (DRB1*1101) (human)
T3 chain 1: not shown
T3 chain 2: not shown

[10] = biological target: T4, HLA-DR7 (DRB1*0701) (human)
T4 chain 1: not shown
T4 chain 2: not shown

[11] = biological target: T5, HLA-DR2w2β1 (DRB1*1501) (human); conditions: remark: other sources report otherwise
T5 chain 1: not shown
T5 chain 2: not shown

[12] = biological target: T6, HLA-DR3 (DRB1*0301) (human); conditions: remark: other sources report otherwise
T6 chain 1: not shown
T6 chain 2: not shown

[13] = biological target: T7, HLA-DR6w19 (DRB1*1302) (human); conditions: remark: other sources report otherwise
T7 chain 1: not shown
T7 chain 2: not shown

[14] = biological target: T2, HLA-DR1 (DRB1*0101) (human); conditions: remark: other sources report otherwise
[15] = biological target: T8, HLA-DR2w2β2 (DRB5*0101) (human)
T8 chain 1: not shown
T8 chain 2: not shown

[16] = biological target: T9, HLA-DR4w4 (DRB1*0401) (human); conditions: remark: other sources report otherwise
T9 chain 1: not shown
T9 chain 2: not shown

[17] = biological target: T3, HLA-DR5w11 (DRB1*1101) (human); conditions: remark: other sources report otherwise
[18] = biological target: T4, HLA-DR7 (DRB1*0701) (human); conditions: remark: other sources report otherwise
[19] = biological target: T2, HLA-DR1 (DRB1*0101) (human); experiment: competition with 125I-labelled probe peptide on purified HLA-DR, gel filtration; conditions: remark: other sources report otherwise
[20] = biological target: T4, HLA-DR7 (DRB1*0701) (human); experiment: as above; conditions: remark: other sources report otherwise
[21] = biological target: T8, HLA-DR2w2β2 (DRB5*0101) (human); experiment: as above; conditions: remark: other sources report otherwise
[22] = biological target: T3, HLA-DR5w11 (DRB1*1101) (human); experiment: as above; conditions: remark: other sources report otherwise
[23] = biological target: T7, HLA-DR6w19 (DRB1*1302) (human); experiment: as above; conditions: remark: other sources report otherwise
HLA-A*0101 (human) [24] = conditions: remark: other sources report otherwise
HLA-A*0101 (human) [25] = biological target: HLA-A*0101 (human)
HLA-A*03 (human) = conditions: remark: other sources report otherwise
HLA-A*0201 (human) = experiment: competition with 125I-labeled standard peptide for purified HLA, gel filtration
HLA-A*6801 (human) = experiment: competition with 125I-labelled probe peptide for purified HLA, gel filtration
HLA-A*1101 (human) = experiment: as above
HLA-A*0301 (human) [26] = experiment: inhibition of 125I-labelled standard peptide binding to purified HLA
HLA-A*3101 (human) [27] = experiment: as above
HLA-A*3301 (human) [28] = experiment: as above
HLA-A*0301 (human) [29] = conditions: remark: other sources report otherwise
HLA-A*3101 (human) [30] = conditions: remark: other sources report otherwise
HLA-A*3301 (human) [31] = conditions: remark: other sources report otherwise
[32] = remark: other sources report otherwise

With LPLDKGIKPYY (modifications not checked) [HBV POL 123 peptide …] the binding affinity ratio (IC50 of standard peptide / IC50 of test peptide) (HLA-B*0702 (human)) was -0.0002 and the binding affinity ratio (IC50 of standard peptide / IC50 of test peptide) (HLA-B*3501 (human)) was 0.0009.

WPKFAVPNL (modifications not checked) [HBV POL 393 peptide …] gave a binding affinity ratio (IC50 of standard peptide / IC50 of test peptide) (HLA-B*0702 (human)) of 0.0054, a binding affinity ratio (IC50 of standard peptide / IC50 of test peptide) (HLA-B*5101 (human)) of 0.0015 and a binding affinity ratio (IC50 of standard peptide / IC50 of test peptide) (HLA-B*5401 (human)) of 0.0015.

GMDIDPYK (modifications not checked) [HBV NUC 29 peptide GMDIDPYK] was tested, and the binding affinity ratio (IC50 of standard peptide / IC50 of test peptide) (HLA-A*0301 (human) [1]) was 0.0008, the binding affinity ratio (IC50 of standard peptide / IC50 of test peptide) (HLA-A*3101 (human) [2]) was -0.0009 and the binding affinity ratio (IC50 of standard peptide / IC50 of test peptide) (HLA-A*3301 (human) [3]) was -0.0009. It also gave a binding affinity ratio (IC50 of standard peptide / IC50 of test peptide) (HLA-A*0301 (human) [4]) of 0.0006.

With GMDIDPYKEF (modifications not checked) [HBV NUC 29 peptide …] the binding affinity ratio (IC50 of standard peptide / IC50 of test peptide) (HLA-A*0301 (human) [4]) was -0.0003.

With QAFTFSPTY (modifications not checked) [HBV POL 654 peptide …] the binding affinity ratio (IC50 of standard peptide / IC50 of test peptide) (HLA-A*0301 (human) [5]) was 0.003.

WGMDIDPYK (modifications not checked) was tested, and the binding affinity ratio (IC50 of standard peptide / IC50 of test peptide) (HLA-A*0301 (human) [6]) was -0.0003.

In the case of CQVFADATPTGWGLA (modifications not checked), the binding affinity ratio (IC50 of standard peptide / IC50 of test peptide) [7] is reported as 0.28.

WPKFAVPNLQSLTNL (modifications not checked) showed a binding affinity ratio (IC50 of standard peptide / IC50 of test peptide) [8] of 0.0007, a binding affinity ratio (IC50 of standard peptide / IC50 of test peptide) [9] of 0.0002 and a binding affinity ratio (IC50 of standard peptide / IC50 of test peptide) [10] of 0.0008.

VGNFTGLYSSTVPVF (modifications not checked) gave a binding affinity ratio (IC50 of standard peptide / IC50 of test peptide) [11] of 0.01.

For LAQFTSAICSVVRRA (modifications not checked), the binding affinity ratio (IC50 of standard peptide / IC50 of test peptide) [11] was 0.0065, the binding affinity ratio (IC50 of standard peptide / IC50 of test peptide) [12] was -0.0009 and the binding affinity ratio (IC50 of standard peptide / IC50 of test peptide) [7, 32] was 0.028. For the same binder, the binding affinity ratio (IC50 of standard peptide / IC50 of test peptide) [9, 32] was 0.0076, the binding affinity ratio (IC50 of standard peptide / IC50 of test peptide) [13] was 0.001 and the binding affinity ratio (IC50 of standard peptide / IC50 of test peptide) [10, 32] was 0.028.

Binder PLPIHTAELLAACFA (modifications not checked) has a binding affinity ratio (IC50 of standard peptide / IC50 of test peptide) [8, 32] of 0.0046 and a binding affinity ratio (IC50 of standard peptide / IC50 of test peptide) [10, 32] of -0.0003.

Binder NAPILSTLPETTVVR (modifications not checked) [… (HBV NUC, exemplary 15-mer with core …)] has a binding affinity ratio (IC50 of standard peptide / IC50 of test peptide) [14] of 0.0009, a binding affinity ratio (IC50 of standard peptide / IC50 of test peptide) [15] of 0.0009 and a binding affinity ratio (IC50 of standard peptide / IC50 of test peptide) [16] of -0.0007. For the same binder, the binding affinity ratio (IC50 of standard peptide / IC50 of test peptide) [17] was -0.0002 and the binding affinity ratio (IC50 of standard peptide / IC50 of test peptide) [18] was 0.0005.

With RDLLDTASALYREAL (modifications not checked) the binding affinity ratio (IC50 of standard peptide / IC50 of test peptide) [19] was 0.0001 and the binding affinity ratio (IC50 of standard peptide / IC50 of test peptide) [20] was 0.077.

Binder VGLLGFAAPFTQCGY (modifications not checked) [HBV POL 626 peptide …] has a binding affinity ratio (IC50 of standard peptide / IC50 of test peptide) [21] of 0.0008, a binding affinity ratio (IC50 of standard peptide / IC50 of test peptide) [22] of -0.0004 and a binding affinity ratio (IC50 of standard peptide / IC50 of test peptide) [23] of -0.0001.

ILRGTSFVY (modifications not checked) [HBV POL 760 peptide …] showed a binding affinity ratio (IC50 of standard peptide / IC50 of test peptide) (HLA-A*0101 (human) [24]) of 0.0017.

With KLIMPARFY (modifications not checked) [HBV POL 108 peptide …] the binding affinity ratio (IC50 of standard peptide / IC50 of test peptide) (HLA-A*0101 (human) [25]) was 0.0017.

With ILRGTSFVY (modifications not checked) [peptide 1.0205] the IC50 (HLA-A*03 (human)) was 250 nM.

NVSIPWTHKV (modifications not checked) [HBV POL 47 peptide …] gave a binding affinity ratio (IC50 of standard peptide / IC50 of test peptide) (HLA-A*0201 (human)) of 0.0001.

PALMPLYACI (modifications not checked) [HBV POL 641 peptide …] gave a binding affinity ratio (IC50 of standard peptide / IC50 of test peptide) (HLA-A*0201 (human)) of 0.0001.

ISCLTFGR (modifications not checked) [HBV NUC 105 peptide ISCLTFGR] was tested, and the binding affinity ratio (IC50 of standard peptide / IC50 of test peptide) (HLA-A*3101 (human) [2]) was 0.0017, the binding affinity ratio (IC50 of standard peptide / IC50 of test peptide) (HLA-A*3301 (human) [3]) was -0.0009 and the binding affinity ratio (IC50 of standard peptide / IC50 of test peptide) (HLA-A*6801 (human)) was 0.0017.

Binder KAGILYKR (modifications not checked) [HBV POL 153 peptide KAGILYKA] has a binding affinity ratio (IC50 of standard peptide / IC50 of test peptide) (HLA-A*1101 (human)) of -0.0002, a binding affinity ratio (IC50 of standard peptide / IC50 of test peptide) (HLA-A*3101 (human) [2]) of 0.0015 and a binding affinity ratio (IC50 of standard peptide / IC50 of test peptide) (HLA-A*3301 (human) [3]) of -0.0009.

Work on LSTLPETTVVR (modifications not checked) [HBV NUC 169 peptide …] yielded a binding affinity ratio (IC50 of standard peptide / IC50 of test peptide) (HLA-A*0301 (human) [1]) of -0.0009, a binding affinity ratio (IC50 of standard peptide / IC50 of test peptide) (HLA-A*3101 (human) [2]) of -0.0012 and a binding affinity ratio (IC50 of standard peptide / IC50 of test peptide) (HLA-A*3301 (human) [3]) of -0.0023. It also gave a binding affinity ratio (IC50 of standard peptide / IC50 of test peptide) (HLA-A*6801 (human)) of 0.0078.

With LTVNEKRR (modifications not checked) [HBV POL 99 peptide LTVNEKRR] the binding affinity ratio (IC50 of standard peptide / IC50 of test peptide) (HLA-A*0301 (human) [1]) was -0.0002, the binding affinity ratio (IC50 of standard peptide / IC50 of test peptide) (HLA-A*1101 (human)) was -0.0002 and the binding affinity ratio (IC50 of standard peptide / IC50 of test peptide) (HLA-A*3101 (human) [2]) was -0.0009. It also gave a binding affinity ratio (IC50 of standard peptide / IC50 of test peptide) (HLA-A*3301 (human) [3]) of -0.0009.

Binder NLEDPASR (modifications not checked) [HBV NUC 75 peptide NLEDPASR] has a binding affinity ratio (IC50 of standard peptide / IC50 of test peptide) (HLA-A*0301 (human) [1]) of -0.0002, a binding affinity ratio (IC50 of standard peptide / IC50 of test peptide) (HLA-A*1101 (human)) of -0.0002 and a binding affinity ratio (IC50 of standard peptide / IC50 of test peptide) (HLA-A*3101 (human) [2]) of -0.0009. For the same binder, the binding affinity ratio (IC50 of standard peptide / IC50 of test peptide) (HLA-A*3301 (human) [3]) was -0.0009.

For NSVVLSRK (modifications not checked) [HBV POL 738 peptide NSVVLSRK], the binding affinity ratio (IC50 of standard peptide / IC50 of test peptide) (HLA-A*0301 (human) [26]) was 0.0006, the binding affinity ratio (IC50 of standard peptide / IC50 of test peptide) (HLA-A*3101 (human) [27]) was -0.0009 and the binding affinity ratio (IC50 of standard peptide / IC50 of test peptide) (HLA-A*3301 (human) [28]) was -0.0009.

RLKLIMPAR (modifications not checked) [HBV POL 106 peptide […] (as printed)] gave a binding affinity ratio (IC50 of standard peptide / IC50 of test peptide) (HLA-A*0301 (human) [29]) of 0.095, a binding affinity ratio (IC50 of standard peptide / IC50 of test peptide) (HLA-A*3101 (human) [30]) of 3.1 and a binding affinity ratio (IC50 of standard peptide / IC50 of test peptide) (HLA-A*3301 (human) [31]) of 0.049.
